Here are results for 41 sequences from the nanobody polyreactivity screen of Harvey et al. (2022).

The nature of this series: yeast display, Sf9 membrane polyspecificity reagent, FACS + sequencing; frameworks hold sequencing errors. The method, boiled down: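 Galactose-induced (36–48 hours) yeast carrying a synthetic nanobody display library were exposed to 10% biotinylated, detergent-solubilized Sf9 membrane reagent at 4 °C for 1 hour. FACS followed streptavidin microbead enrichment, using low and high (top ~1%) gates for expression (anti-HA) and reagent binding (streptavidin). Colony PCR, MiSeq 2 × 250 sequencing and CDR-length filtering followed. Labels for polyreactivity reflect the gate of origin.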
With “QVQLVESGGGLVQAGGRLRLRCAASGFILDTYAMGGYRQAAGNERELVAGITVRGGSTYYADSVKGRFTISRDNAKNTVYLQMNSLKPEDTAVYYCNAAQDRFGYRRSGYWYDYWGQGTQVTVSS”, the “polyreactivity (PSR sort gate)” value is “low polyreactivity”.

Take “QVQLVESGGGLVQAGGSLRLSCAASGAIFGFYAMGWYRQAAGKERELVADITFSVGSTNYADSVKGRFTISRDNAKNTVYLQRNSLKPEDTAVYYCAVANVYYEGYDYWGQGTQVTVSS”: the “polyreactivity (PSR sort gate)” value is “low polyreactivity”.

Take “QVQLVESGGGLVQAGGSLRLRCAASGFIYLKYDMGWYRQAPGKERELVDRITSTGGSTYYADSVKGRFTISRDNAKNTVYLQMNSLKPEDTAVYYCAAVYISRNFFGRARGDYWGQGTQVTVSS”: the “polyreactivity (PSR sort gate)” value is “low polyreactivity”.

As to “QVQLVESGGGLVQAGGSLRLSCAASGRIFHVNAMGWYRQAPGKERELVATITTSGGTTYYADSVKGRFTISRDKAKNTVYLQMNSLKPEDTAVYYCAAKFPRQYSSRYNYWGQGTQVTVSS”, the “polyreactivity (PSR sort gate)” value was “low polyreactivity”.

“QVQLVESGGGLVQAGGSLRLSCAASGRTFSVNAMGWYRQAPGKERELVAAITSGASTNYADSVKGRFTISRDNAKNTVYLQMNSLKPEDTAVYYCAADYLYHQTSRGKYYSWGQGTQVTVSS”: the “polyreactivity (PSR sort gate)” value is given as “low polyreactivity”.

Consider “QVQLVESGGGLVQAGGSLRLSCAASGITFVFYAMGWYRQAPGKEREFVAGITWRGGRTYYADSVKGRFTISRDNAKNTVYLQMNSLKPEDTAVYYCNARSVVLTGGDYWGQGTQVTVSS”, for which the “polyreactivity (PSR sort gate)” value is recorded as “high polyreactivity”.

As for “QVQLVESGGGLVQAGGSLRLSCAASGRIFYRYGMGWYRQAPGKERELVASITRGGSTYYADSVKGRFTISRDNAKYTVYLQMNSLKPEDTAVYYCATKSSAGYDYWGQGTQVTVSS”, the “polyreactivity (PSR sort gate)” value is listed as “low polyreactivity”.

As for “QGQLVESGGGLVQAGGSLRLSCAASGRIVRPNAMGWYRQAPGKETEFVAAISSGGSTYYADSVKGRFTISRDNAKNSVYLQMNSLKPEDTAVYYCAADLSNRPYYRQGYDYWGQGTQVTVSS”, the “polyreactivity (PSR sort gate)” value is “high polyreactivity”.

“QVQLVESGGGLVQAGGSLRLSCAASGRTFYRNAMGWYRQAPGKERELVGAISQSGGSTYYADSVKGRFKISRDNAKNTVYLQMNCLIPEDTAVYSCAAGKSRRVGMDYWGQGTQVTVSS”: the “polyreactivity (PSR sort gate)” value is “high polyreactivity”.

“QVQLVESGGGLVQAGGSLRLSCAASGFTFYGNAMGWYRQAPGKERELVAAISGRGGSTYYADSVKGRFTISRDNAKNTVYLQMNSLKPEVTAVYYCAIYVSWPLYYYWGQGTQVTVSS”: the “polyreactivity (PSR sort gate)” value is listed as “low polyreactivity”.

On to “QVQLVESGGGLVQAGGILRLSCAASGSIFPFNAMGWYRQAPGKERDLVAAITRSGGSTYYADSVKGRFTISRDNAKNTVYLQMNSLKPEDTSVYYCATDPEWPLPAYYYWGQGTQVTVSS”, for which the “polyreactivity (PSR sort gate)” value is “low polyreactivity”.

As for “QVHLVESGGGLVQAGGSLRLSCAASGGTFQSYAMGWYRQAPGKERELVAAITQGGGRTYYADSVKGRFTISRDNAKNTVYLQMNSLKPEDTAVYYCAARQKTPYYYNYGYWGQGTQVTVSS”, the “polyreactivity (PSR sort gate)” value is given as “high polyreactivity”.

For the sequence “QVQLVESGGGLVQAGGSLRLSCDASGRTFGYYAMGWYRHAPGQERELVAGIRSSGGSTYYADSVKGRFTISRDNAKNTVYLQMNSLKPEDTAVYYCAARLRSYHYRYGYDYWGQGTQVTVSS”, the “polyreactivity (PSR sort gate)” value was “high polyreactivity”.

As for “QVQLVESGGCLVQAGGSLRLSCAPSGSIFKVYAKGWYRQAPGKVRELVAAITNGGSTYADSVKGRFTMSRDNAKYTVYLQMNSLKPEDTAVYYCDSDYRGHSGSWYDYWGQGTQVTVSS”, the “polyreactivity (PSR sort gate)” value is reported as “low polyreactivity”.

Regarding “QVQLVESGGGLVQAGGSLRLSCAASGFIFVTYAMGWYRQAPGKERELVAAITNSGGTTYYADSVKGRFTISRDNAKNTVYLQMNSLKPEDTAVYYCNKPYGAETAHREFDYWGQGTHVTVSS”, the “polyreactivity (PSR sort gate)” value is recorded as “low polyreactivity”.

“QVQLVESWGGLVQAGGSLRLSCAASGIIFQNYDMGWYRQAPGKERELVAAITGSGGSTYYADSVKGRFTISRDNAKNIVYLQMNSLKPEDTAVYYCAASSFVVSGYNKYYEYGYWGQGTQVTVSS”: the “polyreactivity (PSR sort gate)” value is “low polyreactivity”.

Consider “QVQLVESGGGLVQAGGSLRLSCAASGFIFRRYVMGWTRQAPGKERELVAAISNGGGRTYYADSVKGRFTISRDNAKNTVYLQMNSLKPEDTAVYYCAAYPRGPLAPDYDYWGQGTQVTVSS”, for which the “polyreactivity (PSR sort gate)” value is on record as “high polyreactivity”.

As to “QVQRVESGGGLFQAGGRLRLSCAATGSIFTPNAMGWYRQAPGKERELVAAISSSSDRTYYADSVKGRFTISRDKAKNTVYLQMNSLKPEDTAVYYCAAYAQKRYYWGQGTQVTVSS”, the “polyreactivity (PSR sort gate)” value is on record as “high polyreactivity”.

For the sequence “QVQLVESGGGLVQAGGSLRLSCAASGFIFRSYVMGWYRQSPGKERELVAAISKSGGSTYYADSVKGRFTISRDNAKTTVYLQMNSLKPEDTAVYYCAAGTTRTGYRTRYDYWGQGTQVTVSS”, the “polyreactivity (PSR sort gate)” value was “high polyreactivity”.

For “QVQLVESGGGLVQAGGSLRLSCAASGSISPQNVMGWYRQAPGKERELVAAITWTGTSTYADSVKGRFTISRDNAKNTVYLQMNSLKPEDTAVYYCAARYYAPRWFRYDYWGQGTQVTVSS”, the “polyreactivity (PSR sort gate)” value is recorded as “low polyreactivity”.

For the sequence “QVQLVESGGGLVQAGGSLRLSCAASGRTLGYYAMGWYRQAPGTERELVAAISGSGGITYYADSVKGRFTISRDNAKNTVYLQMNSLKPEDTAVYFCNVDPTAKWFNYDSWGQGTQVTVSS”, the “polyreactivity (PSR sort gate)” value is “low polyreactivity”.

As to “QVQRVESGGGLVQAGGSLRLSCAACGSILPQYTMVWYRQAPGKERELVAAISKRGDRTYYADSVKGRFTISRDNAKNTVYLQMNSLKPEDTAVYYCAALGTGTGARSRYSVRFDYWGQGTQVTVSS”, the “polyreactivity (PSR sort gate)” value is on record as “high polyreactivity”.

Take “QVHLVESGGGLLQAGGSLRLSCAASGFTFFVNAMGWYRQAPGKERELVAAISIRSGGRTYYADSVKGRFTISRENAKNTVYLQMNSLKPEDTAVYYCAAESSRPEHTFHYYRFLFDYWGQGTQVTVSS”: the “polyreactivity (PSR sort gate)” value is listed as “low polyreactivity”.

As for “QVQLVESGGGLVQAGGSLRLSCAASGSIFDSNNMVWYRQAPGKERELVAGISTGGSTNYADSVKGRFTISRDNAKNTVYLQMNSLKPEDTAVYYCNADLGSSYDWGQGTQVTVSS”, the “polyreactivity (PSR sort gate)” value is reported as “low polyreactivity”.

Consider “QVQLVESGGGLVQAGGSLRLSCAASGSTFYYNAMGWYRTAPGKERELVAVIDGSGGFTYYADSVKGRFTISRDNAKNTVYLQMNSLKPEDTAVYYCNADLVYNTFIFSGGDEYDYWGQGTQVTVSS”, for which the “polyreactivity (PSR sort gate)” value is given as “high polyreactivity”.

As to “QVQLVESGRGLVQAGGSLRLSCAASGITFTAYAMGWYRQAPGLERQLVATINSTGITNYADSLKGRFTISRDNAKNTVYLQMNSLKPEDTAVYYCAADLLYISSYDGMDYWGQGTQVTVSS”, the “polyreactivity (PSR sort gate)” value is given as “low polyreactivity”.

On to “QVQLVESGGGLVQAGGSLRLSCAASGRTFPGNAMGWSRQAPGKERELVATITWSSGRTHYADSVKGRFTISRDNAKNTVYLQMNSLKPEDTAVYYCAAKWIVAVGGFYYWGQGTQVTVSS”, for which the “polyreactivity (PSR sort gate)” value is “low polyreactivity”.

In the case of “QVHLQESGGGLVQAGGSLRLSCAASGTIFASQHMGWYRQAPGKERELVASIAKGGTTYYADSVKGRFTISRGNAKNTEYLQMNRLKPEDTAVYYCAARGWGYRRTYVYAWYDYWGQGTQVTVSS”, the “polyreactivity (PSR sort gate)” value is reported as “high polyreactivity”.

As to “QVQLVESGGGLVQAGGSLRLSCAASGRTFSPYAMGWYRQAPGKERELVAAITSRGASTYYADSVKGRFTISRDNAKNTVYLQMNSLKPEDTAVYYWNSGRTYRRLGDYWGQGTQVTVSS”, the “polyreactivity (PSR sort gate)” value is listed as “high polyreactivity”.

Consider “QVQLVESGGGLVQAGGSLRLSCAASGSIFGSYAMGWYRQAPGKEMELVAAISGSGGRTYYADSVKGRFTISRDNAKNTVYLKMNSLKPEDTAVYYCSAAYPRVTYKYGYYWGQGTQVTVSS”, for which the “polyreactivity (PSR sort gate)” value was “high polyreactivity”.

Consider “QVQLEESGGGLVQAGGSLRLSCAATGGTFRDNVMGWYRQAPGKERELVAAISRNGGSTYYADTVKGRFTISRDNAKNTVYLQMTSLKPEDTAVYYCAARHLSAGGYYWGQGTQVTVSS”, for which the “polyreactivity (PSR sort gate)” value is reported as “high polyreactivity”.

In the case of “QVQLVESGGGLVQAGGSIRLSCAASGFIFYVYAMGRSRQAPGKERELVAAISGGGDSTYYADSVKGRFTTSRDNAKNTVYLQMNSLKPEDTAVYYCATRRYPEVVNGESGYWGQGTQVTVSS”, the “polyreactivity (PSR sort gate)” value was “low polyreactivity”.

Turning to “QVQLVESGGGLVQAGGSLRLSCAASGSTFYSNAMGWYRQAPGKERELVAAISSTGSSTYYADSVKGRFTISRDNAKNTVYLQMNSLKPEDTAVYYCATDYYQSYWPATYDYWGQGTQVTVSS”, the “polyreactivity (PSR sort gate)” value was “low polyreactivity”.

As to “QVQLVESGGGLVQAGGILRLSCAASGRTFSWNAMGWYRQAPGKERELVAAISNSGGSTYYADSVKGRFTISRDNAKNTVFLQMNSLKPEDTAVYYCAVYRYYGFSLWYDYWGQGTQVTVSS”, the “polyreactivity (PSR sort gate)” value was “low polyreactivity”.

On to “QVQLVESGGGLVQAGGSLRLTCAASGFTFYRYDMGWYRQAPGKERELVAAITNNGGNTYYADSVKGRFTISRDNAKNTVYLQMNSLKPDVTAVYYCATKRYYWRGYWGQGTQVSVSS”, for which the “polyreactivity (PSR sort gate)” value is given as “high polyreactivity”.

With “QVQLVESGAGLVQAGGSLRISCAASGRIFYVYAMGWYRQAPGKEREFVASISWSGGSTYYADSVKGRFTISRDNANNTVLLQMNSLKPADTAVYYCNARAFTQRYDYWGQGTQVTVSS”, the “polyreactivity (PSR sort gate)” value is “low polyreactivity”.

Take “QVQLVESGGGLVQAGGSLRLSCAASGRTFDLNAMGWYRQAPGKERELVAGISSSGGRTYYADSVKGRFTISRDNAKNTVYLQMNSLKPEDTAVYYCAKVYPSYVLRKYDYWGQGTQVTVSS”: the “polyreactivity (PSR sort gate)” value is reported as “high polyreactivity”.

For the sequence “QVQLVESGGGLVQAGGSLRLSCAASGSIFVGYAMGLYRQAPGKERELVAAISASGGRTYYADSVKGRFTISRDNAKNTVYLQMNSLKPEDTAVYYCATDDYWGRGTQVTVSS”, the “polyreactivity (PSR sort gate)” value is “high polyreactivity”.

As for “QVQLVESGGGLVQAGGSLRLSCAASGSIFFPNAMGWYRQAPGKERELVAAITSTSTNYADSVKGRCTISRDNAKNTVYLQMNSLKPEDTAVYYCAADGEFRRAWYEGVYWGQGTQVTVSS”, the “polyreactivity (PSR sort gate)” value was “low polyreactivity”.

In the case of “QVQLVESGGGLVQAGGSLRLSCAASGLIFYDNMGWYRQAPGKERELVAAISSSGGSTSYADSVKGRFTISRDNAKNTVYLQMNSLKPEDTAVYYCAADSYPAYLGFVGFDYWGQGTQVNVSS”, the “polyreactivity (PSR sort gate)” value was “low polyreactivity”.

Consider “QVQLVESGRCLVQAGGSLRLSCAASGITFDGNAMGWYRQEPGKERELVAGITRIGGGTYYADSVKGRFTISRDNAKNTVYLQMNSLKPEDTAVYYSAKDALVPNFTKDIFEYDYWGQVTQVTVSS”, for which the “polyreactivity (PSR sort gate)” value is “low polyreactivity”.
